In patent US8691225B2, “Antibodies against the ectodomain of ErbB3 and uses thereof” (Merrimack Pharmaceuticals, Inc., priority 2007, dated 2014):

Experiments:
[1] = biological target: T1, ErbB3 in MALME-3M xenografts (Homo sapiens, UniProt P21860); assay: total ErbB3 in MALME-3M xenografts in vivo; design: species or system mouse; conditions: MALME-3M xenograft, 24 hours post-injection, IgG1 or IgG2 isotype
T1 construct: ErbB3 expressed on MALME-3M melanoma cells; host or cells: MALME-3M melanoma cells
Method: T-cell deficient nu/nu mice (3-4 week old female mice originated at NIH; outbred; albino background) were purchased from Charles River Labs (Wilmington, Mass.). MALME-3M cells for implantation were grown in culture (RPMI media, 10% FBS, L-glutamine and antibiotics, 37° C., 5% CO2) to about 80% confluency before harvesting. Cells were kept on ice until implantation.
The tumors were measured (length by width) by digital caliper and the mice were pretreated with murine IgG2a (Sigma, M7769—5 mg) by intravenous injection to block in vivo depletion of tested antibodies by murine Fc receptors.
Final tumor measurements (L×W) were taken, the mice were euthanized by CO2 asphyxiation and tumors were excised, snap frozen in liquid nitrogen, and were stored at −80° C. (for biochemical analysis). Final tumor measurements were analyzed and graphed by tumor area and tumor volume as described, for example, in Burtrum et al., (2003) Cancer Res., 63:8912-8921. The data was also analyzed by “normalized” and “non-normalized” means for both tumor volume and tumor area. For the “normalization” of the data, at each time point of measurement, each tumor in each group was divided by the initial tumor size determined by caliper measurement.

[2] = system: Du145 (prostate) xenograft; assay: xenograft tumor growth in nude mice; type: in vivo, mouse
[3] = biological target: T2, heregulin binding to ErbB3 on MALME-3M cells (Homo sapiens, UniProt P21860); assay: biotinylated heregulin binding to MALME3M cells by FACS; type: cell-based; conditions: 5 μM antibody, 20 nM heregulin EGF
T2 construct: ErbB3 expressed on MALME-3M melanoma cells; host or cells: MALME-3M melanoma cells
Method: After 30 minutes, 50 μl of 40 nM biotinylated heregulin EGF is added to the cells and incubated for another 10 minutes on ice. This yields a final concentration of 5 μM antibody and 20 nM heregulin EGF. Cells are then washed twice with 500 μl BD stain buffer and incubated with 100 μl of a 1:200 dilution of streptavidin-PE (PE=phycoerythrin) (Invitrogen) in BD stain buffer for 45 minutes. Finally, cells are washed twice, resuspended in 300 μl of BD stain buffer and analyzed in a FACSCALIBUR flow cytometer. As a positive control, 1×10^5 MALME3M cells are incubated with 20 nM heregulin EGF for 10 minutes on ice, washed twice and incubated with a 1:200 dilution of streptavidin-PE for 45 minutes. In order to assess background staining from the streptavidin-PE conjugate, 1×10^5 MALME3M cells are incubated with 100 μl of a 1:200 dilution of streptavidin-PE only for 45 minutes.

[4] = system: three different xenografts; assay: VEGF secretion in xenografts in vivo
Excerpt: Inhibition of VEGF correlates with inhibition of ErbB3 phosphorylation (FIG. 24C). […] Inhibition of VEGF secretion is also known in the art to correlate with inhibition of tumor induced angiogenesis, a facilitator of tumor growth.

[5] = system: HGF induced ErbB3 phosphorylation in AdrR cells; assay: HGF induced ErbB3 phosphorylation in AdrR cells; type: cell-based, human
Method: Various ligands are tested for inducement of ErBb3 phosphorylation. At least three ligands, HRG, BTC, and HGF, are able to stimulate ErbB3 induced phosphorylation in AdrR cells, while EGF can not. […] Further, as known in the art (see, e.g., Wallenius et al. (2000) Am J Pathol. 156 (3):821-9), enhanced HGF signaling has been reported in various epithelial and non-epithelial tumors.
c-MET-ErbB3 interactions also occur in AdrR cells carrying the wild type EGFR and is not dependent on amplified c-MET.

[6] = biological target: T3, ErbB2/3 complex in AdrR cells (Homo sapiens, UniProt P21860); assay: ErbB2-ErbB3 protein complex formation (immunoprecipitation, blot); type: cell-based; conditions: 250 nM Ab #6, 10 nM HRG
T3 construct: host or cells: AdrR ovarian cancer cells
Method: The cells are lysed in 25 mM Tris, pH+7.5, 150 mM NaCl, 1 mM EDTA, 1.0% Triton X-100, 1.0% CHAPS, 10% v/v glycerol, containing 0.2 mM PMSF, 50 mTU/mL aprotinin, and 100 uM leupeptin, and the crude lysate are centrifuged briefly to remove insoluble material. Supernatant is transferred to a new EPPENDORF tube, and anti-ErbB3 antibody (Santa Cruz sc-285) is added at 1:500 dilution. Supernatants are incubated overnight with gentle shaking at 4 C. 60 ul of Immobilized Protein A/G agarose beads (Pierce, Rockford, Ill., #20421) is first washed with 1× PBS. The cell lysate-antibody mixture is added to the PBS washed beads, and incubated for 2 hours with gentle shaking at 4° C. The immunoprecipitates are then washed with ice-cold lysis buffer 3 times, resuspended in 30 ul of 2× SDS sample buffer, heat denatured at 95° C. for 7 minutes and run on 4-12% Bis-Tris Gels. SDS-PAGE and electro-transferred to PVDF membrane in Tri-Glycine buffer with 10% MeOH. […] The signal is detected using goat anti-rabbit IRDye800® infrared fluorescent dye-conjugated secondary antibody at 1:5000 (2 ul) in 10 ml of blocking buffer (Li-Cor Biosciences, #927-40000).

B1: Ab #6: human anti-ErbB3 antibody from Fab-phage library, CDRs SEQ ID NOs:7-12; used as IgG1 and IgG2 isotypes; in phase I trials as MM-121 (antibody, V domains shown)
VH: EVQLLESGGGLVQPGGSLRLSCAASGFTFSHYVMAWVRQAPGKGLEWVSSISSSGGWTLYADSVKGRFTISRDNSKNTLYLQMNSLRAEDTAVYYCTRGLKMATIFDYWGQGTLVTVSS
VL: QSALTQPASVSGSPGQSITISCTGTSSDVGSYNVVSWYQQHPGKAPKLIIYEVSQRPSGVSNRFSGSKSGNTASLTISGLQTEDEADYYCCSYAGSSIFVIFGGGTKVTVL
- downregulation of total ErbB3 in xenograft tumors [1]: significant downregulation of total ErbB3
- inhibition of tumor growth ([2]; 300 ug every three days (Q3d), p<0.05): significant inhibition of tumor growth
- inhibition of tumor growth ([2]; 600 ug Q3d versus 300 ug): further elevated
- inhibition of heregulin binding to ErbB3 [3]: able to inhibit heregulin binding to ErbB3
- inhibition of VEGF secretion in vivo [4]: inhibiting VEGF secretion in three different xenografts, the highest being in COLO-357 xenograft
- inhibition of HGF induced ErbB3 phosphorylation ([5]; AdrR cells): inhibits HGF induced ErbB3 phosphorylation
- IC50 ([5]; HGF induced ErbB3 phosphorylation in AdrR cells (FIG. 28)): 0.244 nM
- inhibition of HRG stimulated ErbB2/3 complex formation [6]: completely inhibit HRG stimulated ErbB2/3 complex formation
